# Reference: patent publication US20030104422A1
# Where “and” joins values, the source holds several entries; their conditions need not be identical. Equal entries are not always repeated.
# Key:
# [1] = biological target: human placental alkaline phosphatase (PLAP, Sigma) (human) (UniProt P05187); assay: ELISA on coated hPLAP; mAb 64 ng/ml in PBS, undiluted
# [2] = biological target: human placental alkaline phosphatase (PLAP, Sigma) (human) (UniProt P05187); assay: ELISA on coated hPLAP; mAb 64 ng/ml spiked in negative serum, diluted 1:16
# [3] = biological target: human placental alkaline phosphatase (PLAP, Sigma) (human) (UniProt P05187); assay: ELISA on coated hPLAP; mAb 64 ng/ml in PBS, diluted 1:4
# [4] = biological target: human placental alkaline phosphatase (PLAP, Sigma) (human) (UniProt P05187); assay: ELISA on coated hPLAP; mAb 64 ng/ml in PBS, diluted 1:32
# [5] = biological target: human placental alkaline phosphatase (PLAP, Sigma) (human) (UniProt P05187); assay: ELISA on coated hPLAP; mAb 64 ng/ml in PBS, diluted 1:64
# [6] = biological target: human placental alkaline phosphatase (PLAP, Sigma) (human) (UniProt P05187); assay: ELISA on coated hPLAP; mAb 64 ng/ml spiked in negative serum, diluted 1:2
# [7] = biological target: human placental alkaline phosphatase (PLAP, Sigma) (human) (UniProt P05187); assay: ELISA on coated hPLAP; mAb 64 ng/ml in PBS, diluted 1:2
# [8] = biological target: human placental alkaline phosphatase (PLAP, Sigma) (human) (UniProt P05187); assay: ELISA on coated hPLAP; row labelled '0' (apparently no sample, background)
# [9] = biological target: human placental alkaline phosphatase (PLAP, Sigma) (human) (UniProt P05187); assay: ELISA on coated hPLAP; mAb 64 ng/ml spiked in negative serum, diluted 1:4
# [10] = biological target: human placental alkaline phosphatase (PLAP, Sigma) (human) (UniProt P05187); assay: ELISA on coated hPLAP; mAb 64 ng/ml in PBS, diluted 1:8
# [11] = biological target: human placental alkaline phosphatase (PLAP, Sigma) (human) (UniProt P05187); assay: ELISA on coated hPLAP; mAb 64 ng/ml spiked in negative serum, diluted 1:32
# [12] = biological target: human placental alkaline phosphatase (PLAP, Sigma) (human) (UniProt P05187); assay: ELISA on coated hPLAP; mAb 64 ng/ml spiked in negative serum, diluted 1:64
# [13] = biological target: human placental alkaline phosphatase (PLAP, Sigma) (human) (UniProt P05187); assay: ELISA on coated hPLAP; mAb 64 ng/ml in PBS, diluted 1:16
# [14] = biological target: human placental alkaline phosphatase (PLAP, Sigma) (human) (UniProt P05187); assay: ELISA on coated hPLAP; mAb 64 ng/ml spiked in negative serum, diluted 1:8
# [15] = biological target: human placental alkaline phosphatase (PLAP, Sigma) (human) (UniProt P05187); assay: ELISA on coated hPLAP; mAb 64 ng/ml spiked in negative serum, undiluted
# UniProt P05187, sequence (P05187 23-506 limits assumed): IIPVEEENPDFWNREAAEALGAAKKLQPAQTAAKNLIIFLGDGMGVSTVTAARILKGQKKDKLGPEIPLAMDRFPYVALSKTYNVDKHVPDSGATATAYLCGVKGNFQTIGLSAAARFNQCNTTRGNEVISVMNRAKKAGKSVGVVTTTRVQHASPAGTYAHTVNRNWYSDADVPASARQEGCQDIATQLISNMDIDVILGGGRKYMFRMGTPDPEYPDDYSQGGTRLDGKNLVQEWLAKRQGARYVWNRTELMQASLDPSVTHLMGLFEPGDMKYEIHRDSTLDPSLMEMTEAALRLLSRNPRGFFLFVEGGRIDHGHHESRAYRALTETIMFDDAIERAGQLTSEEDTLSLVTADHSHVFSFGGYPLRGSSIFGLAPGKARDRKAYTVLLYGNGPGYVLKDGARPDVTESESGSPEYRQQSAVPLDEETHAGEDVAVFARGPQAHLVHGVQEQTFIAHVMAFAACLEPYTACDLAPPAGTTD
absorbance at 450 nm (absorbance at 450 nm) [1],absorbance at 450 nm (absorbance at 450 nm) [2],absorbance at 450 nm (absorbance at 450 nm) [3],absorbance at 450 nm (absorbance at 450 nm) [4],absorbance at 450 nm (absorbance at 450 nm) [5],absorbance at 450 nm (absorbance at 450 nm) [6],absorbance at 450 nm (absorbance at 450 nm) [7],absorbance at 450 nm (absorbance at 450 nm) [8],absorbance at 450 nm (absorbance at 450 nm) [9],absorbance at 450 nm (absorbance at 450 nm) [10],absorbance at 450 nm (absorbance at 450 nm) [11],absorbance at 450 nm (absorbance at 450 nm) [12],absorbance at 450 nm (absorbance at 450 nm) [13],absorbance at 450 nm (absorbance at 450 nm) [14],absorbance at 450 nm (absorbance at 450 nm) [15],Substance
0.486,0.123,0.424,0.091,0.047,0.439,0.487,0.007 and 0.009,0.341,0.282,0.071,0.042,0.169,0.209,0.546,"mouse monoclonal antibody to PLAP (clone 8B6, Sigma Immunochemicals)"
,,,,,,,0.005,,,,,,,,negative control serum (serum of mice injected with saline)
